In assay [1] the target is T1, Mol8 (Mobiluncus mulieris).
T1 construct: also called Mol8 construct
T1 chain: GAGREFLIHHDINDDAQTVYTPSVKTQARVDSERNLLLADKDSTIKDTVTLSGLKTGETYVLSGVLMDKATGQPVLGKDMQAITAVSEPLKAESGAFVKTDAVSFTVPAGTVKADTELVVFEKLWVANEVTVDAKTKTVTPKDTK
The assay can be described thus: SDS-PAGE of mixed Mol domains, ester bond ligation.

In assay [2] the target is T2, Mol9 (Mobiluncus mulieris).
T2 construct: also called Mol9 construct
T2 chain: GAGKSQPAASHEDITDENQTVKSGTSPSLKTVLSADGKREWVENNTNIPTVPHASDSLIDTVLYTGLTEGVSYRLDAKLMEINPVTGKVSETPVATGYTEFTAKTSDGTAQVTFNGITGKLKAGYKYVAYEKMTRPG
The assay can be described thus: SDS-PAGE of mixed Mol domains, ester bond ligation.

B1: Mol11 (other)
chain: GAGKTWAATHADPNDAGQTVTVVKAPKIGTTLKYGQSKTVWVADKVELTDTVEYFNLQPKTKYTLSGNLMGGTSAESLSDTGVKATTEFTTPAAANGAQTVSGTAVVKFTVPREVLERNEKLVAYEYLTIDGNPVASHEDPKDENQTVTSKKP
notes: also called Mol11 domain construct
B1: the binding result is reported as “no binding (tested: equimolar amounts, 24 h)” in assay [1] and “no binding (tested: equimolar amounts, 24 h)” in assay [2].

B2: Mol10 (other)
chain: GAPDKPVPPPHEDPKDPNQTVVSEHNPGITTTLTDAQAAKGTDGKVISLTRDAQLKDVVRVTQTGLIEGAKYHVFSKLVNQANPDQVVSAGMQEFTATGDQLRSVTVKFTVPKETLQELAGSDPSAEFKLVAYEYLALDSDTDIVNKEATSEIEAVGFK
notes: also called Mol10 construct
B2: the binding result in assay [1] was “no binding (tested: equimolar amounts, 24 h)”.
